Laboratory results published in the DeepSol protein solubility set.

assay: soluble on expression in E. coli; label from the status in PepcDB or PDB records

Sequence | soluble on expression in E. coli
MNHLTNQYVMLHDEKRCIGCQACTVACKVLNDVPEGFSRVQVQIRAPEQASNALTHFQFVRVSCQHCENAPCVSVCPTGASYRDENGIVQVDKSRCIGCDYCVAACPFHVRYLNPQTGVADKCNFCADTRLAAGQSPACVSVCPTDALKFGRLDESEIQRWVGQKEVYRQQEARSGAVSLYRRKEVHQEGKA | not soluble
MSLTERFVLRNVKRVNGEEVDIVIENNKIAQVTKAGAGEGGKVLDYSGTYVSSGWIDLHVHAFPEFDPYGDEVDEIGVKQGVTTIVDAGSCGADRIADLVKSREQAKTNLFAFLNISRIGLKRIDELSNMEWIDKEKVIEAVEKYKDVIVGLKARMSKSVVCDSGIEPLHIARDLSRETSLPIMVHIGSAPPRIEEVVPLLEKDDVITHYLNGKENNLFDEEGKPLPVLLDAVNRGVHLDVGHGNASFSFKVAEAAKRHGIAFNTISTDIYRKNRMHGPVYSMAHVLSKFLYLGYSLEEVIDAVTKHAAEWLKKPELGRIQEGDIANLTLFTVKDEKITLIDSEGDQRIAERRIDTKGVVINGSFIECEGHHHHHH | soluble
MSLSEADTSNAKLADFFAKKGNEPLSEIEMEGVLALMQKSRGVADESSFLGNSSRLLGDISNANASQVLRTGNISTSSALNVPNFKPSTDESRNINAKEVENSTIVSTPLKRKNFDYSSIRSPYRTVIYRFDDSNKKKISSVFDKPESSSQEVDETPKPSNSKPLSNTASALVSLLSDKDAAKESIKPMANPYTSHLTALRKSREDLPSINDKITVPKRRQRSETEDKEEAKITSSNGEAQEDTNIPEGIASRKNEEAQDSFTKYKPMRSSSLRDSVSLAHTESNNEKQMNSPKFVPAPLDKNETKETAKSDLTLTSSDKQSESKPSFSFPVNSTTKSTFMGTKKESTSPAVNSQAVKNVSNNETKEIKPQVHECIYDFGNPTSSGFKKTDIDDTLVSKYRGQFVFEGHHHHHH | soluble
MTYFVVEVTDQEIRREKDKARELRRSRWWQTVISRRTCHWCGGDFPPEELTMDHVVPIVRGGKSSRGNVVPACKECNNRKKYLLPLEWEEYLEKARNGGEQLEHHHHHH | soluble
MIDREQIVRIVSDYLSTGETFLVEVAIHPGNRILVELDSAQGVCIDECVALSRHIESQVDRDIEDYELEVGSTGLTSPLKVMRQWENCIDSELSVLLTNGMKETGRLITVAPEAIKLEVVRMVKPEGAKRKKPETQELTIVMADIKQAVRII | not soluble
MVASCKSTSQPVSLSQKDSSPDFNRCRNDSEDTVNLTGSGDIYIDKESSQKALDDLLRKVTLDGGISLKDAKSSEILAAYERKIQMLQLELQMKNVPKPVVEIETTSQKIRDLAQECEALRDSNKQLTDHMTRGNLEINQLKVQLEEVKQKCDSIETSLGMCITEKAGLKTQLTESLQNAERNVHTAQNEISKLNTELAQSVTRIELFLAENRELKQEFEEKVVECEVLKEHIRQIDLELKNKQSDMERALLQISAAEQKAAKKELELIEAEKHLKLYESRLSDRERDLNAKNLEIDRLKLDLDAARRNLQKLEQMREAMLSLASSSSN | not soluble
AIAASSTDQNLMDLSDKDTREKLSFWDRRVDPMAPLTDRQTDSILELRAAAEETLLPAELPIEDICSLSSRSLRSSFTAALPESTEEVLLQGFQMLELHNHRIETAQQFFSWFSKLQVQMDQDEASKYRKTRDVLNGYQEQCDAILNDVNTALDHLDSLQKQYLFVSTKTGTLHEACEQLLKEQSELVDLAESIQEKLSYFNELENINTKLNSPTLSVNSEGFVPMLSKLDECIEYVSSHPNFKDYPVYLTKFKQCLSKAMQLIKSHTVNTLQNLTGQLSKRDPLGAPSA | not soluble
ADVSAAVGATGQSGMTYRLGLSWDWDKSWWQTSTGRLTGYWDAGYTYWEGGDEGAGKHSLSFAPVFVYEFAGDSIKPFIEAGIGVAAFSGTRVGDQNLGSSLNFEDRIGAGLKFANGQSVGVRAIHYSNAGLKQPNDGIESYSLFYKIPI | soluble
MGSDKIHHHHHHMAGCDDSFDIIVVGAGPVGLSFAASLAYSQLKLAVVEGQALERLASPAFDGREIALTHASIGILRELGAWDVISASDKSPLQGARVLNGSSPFALCFDSPGGSAEPLGVLVPNCQIRDALFKIIRLRGHARLLCGHSVVRATNSRQGAVITLSNGRQLSARLLVAADSRFSATRNLLGIGADINRLGNSMLICRVRHERPHHQIAIEWFDHHQTVAMLPLAPGVSSLLLTLPSNEADGLLALDDELFLRELTKRCRGRLGTMSLASQRYIYPLATTWAHRFRAPSFALIGDAAIGMHPVTAHGFNIGLGGQKQLARGIETAWRDRRDIADPDMLHRYESRLRLSAAPLYHATNILVGLYSSEHPAARLARHVGLRLGQHLPFVRHGIAAMLRR | not soluble
PSQDPRTPGGSEWRETGPQFRCLPPVPADMVFLVDGSWSIGHSHFQQVKDFLASVIAPFEIGPDKVQVGLTQYSGDAQTEWDLNSLSTKEQVLAAVRRLRYKGGNTFTGLALTHVLGQNLQPAAGLRPEAAKVVILVTDGKSQDDVHTAARVLKDLGVNVFAVGVKNADEAELRLLASPPRDITVHSVLDFLQLGALAGLLSRLICQRLQGGSPRQGPAAAPALDTLPAPTSLVLSQVTSSSIRLSWTPAPRHPLKYLIVWRASRGGTPREVVVEGPAASTELHNLASRTEYLVSVFPIYEGGVGEGLRGLVTTAPLPPPRALTLAAVTPRTVHLTWQPSAGATHYLVRCSPASPKGEEEEREVQVGRPEVLLDGLEPGRDYEVSVQSLRGPEGSEARGIRARTPTLAPPRHLGFSDVSHDAARVFWEGAPRPVRLVRVTYVSSEGGHSGQTEAPGNATSAMLGPLSSSTTYTVRVTCLYPGGGSSTLTGRVTTKKAPSPSQLSMTELPGDAVQLAWVAAAPSGVLVYQITWTPLGEGKAHEISVPGNLGTAVLPGLGRHTEYDVTILAYYRDGARSDPVSLRYTPSTVSRSPPSNLALASETPDSLQVSWTPPLGRVLHYWLTYAPASGLGPEKSVSVPGARSHVTLPDLQAATKYRVLVSAIYAAGRSEAVSATGQTACPALRPDGSLPGFDLMVAFSLVEKAYASIRGVAMEPSAFGGTPTFTLFKDAQLTRRVSDVYPAPLPPEHTIVFLVRLLPETPREAFALWQMTAEDFQPLLGVLLDGDVGPASPPAVRRSRGREAPEPWEAFRGSPASRPGPQHPLGGRQVSRAGGCGPH | soluble
EVKGIGEYKILGESIDDAAGEAFDKTAKLMGLDYPGGPLLSKLAEKGTPGRFKFPRPMTNVPGLDMSFSGLKTFTANTIAANGDDEQTRADIAYAFEEAVCATLAIKCKRALEQTGMKRIVIAGGVSANRRLRAELEKLAKKIGGEVYYPRTEFCTDNGAMIAYAGMQRLKNGEVADMSVEARPRWPIDQLTPIA | not soluble
MKVLVVGNGGREHAIAWKVAQSPLVKELYVAKGNAGIWEIAKRVDISPTDVEKLAEFAKNEGVDFTIVGPEAPLVEGIVDEFEKRGLKIFGPNKEAAKLEGSKAFAKTFMKKYGIPTARYEVFTDFEKAKEYVEKVGAPIVVKADGLAAGKGAVVCETVEKAIETLDRFLNKKIFGKSSERVVIEEFLEGEEASYIVMINGDRYVPLPTSQDHKRLLDEDKGPNTGGMGAYSPTPVINEEVEKRIREEIVERVIKGLKEEGIYYRGFLYAGLMITKEGPKVLEFNVRLGDPEAQPILMRVKNDFLETLLNFYEGKDVHIKEDERYALDVVLASRGYPEKPETGKIIHGLDYLKSMEDVVVFHAGTKKEGNFTVTSGGRVLNVCAYGKTLKEAKERAYEAIRYVCFEGMHYRKDIGDKAFKYLSE | soluble
MSVLRRLTWLAFPLLSMAFNVQANTAPAQLNKAELEQRFAKLGLQVEEIKTSDINGLLEVQTSGGVLFSSPDGEHFIAGTLYALDGNGGYVDVLAKRQAPLNAKKIAALQDSMIEFKAPNEKYAITVFTDITCGYCVRLHSQIKEYNDLGITVRYLAYPRQGPQGQVADQMAAIWCSNDPKAAMHDAKVNRKTITADKDIAQCQKTIAQHYMLGHELGISGTPAIFLPNGEMVGGYLPAPQLLQRLQATQ | not soluble
MEHEIGNISIARIRQMNPSLKGINNDFVMDRSEHYIPENMNPIFKYPLRLDGIIISIREKGSAKVNINLREYDIEQNDLIICAPGDILQSMLSPGIHLSQMFLISSDFLKEMYINLNSFMPFFISLKENPKFHLMEEEVQELKSFYELIEETVSRNDNFRTEIVRRLMGAYLYKIGSILHRKQPEFLSENPKSLKREEVLFNQFINLLTEHHRKERRVDFYAEQLFLSPKHFSTVVKKVSGKTAGEWIDEYVILEAKALLKYSVMSIQEVAYFMNFPNPSFFGKYFKHHTGLSPSEYKMQ | not soluble
QVKPFSFVRDTDPVQLVNFLQSEHPQTIAVVLSYLDPPVAAQILGALPEELQTEVLKRIALLERTSPEVVKEIERNLEKKISGFVSRTFSKVGGIDTAAEIMNNLDRTTEKKIMDKLVQENPELADEIRRRMFVFEDILKLDDRSIQLVLREVDTRDLALALKGASDELKEKIFKNMSKRAAALLKDELEYMGPVRLKDVEEAQQKIINIIRRLEEAGEIVIARGGGEELIM | soluble
MKVIGINGSPRRAGNTSIMLKTIFEVLEDEGIETELIQVGGTNIKGCRACYACIKNKNSECSTKGDGFNEIFAKMVEADGMILGSPTYFADITPELKALIDRAGFVSRTNGQLFRHKVGASVVSLRRGGGIHAYDSINHLFQICQMFMVGSTYWNLGFGGRDGGEVVNDTEGMENMRDLGHSMAFLLKKLHNLEHHHHHH | not soluble
MSLKVTMEFIANQLGITKNTVSLALRNMPGVSEKTRKEILRTAEKYGYIYKKSNSKNSKSNSRTGSICLMLSNDTKNSVGFFSFIQYGVESEGKRNGLNTILYCFDDNKEFQPPVCIRDGIVSGIITLGRISRKTVSSIISLNLPLVIVDDFFDDIKASYVLTDNLSGGYTATEYLIKSGHRSIGFFGDIFASPSFFDRYMGYLKAHVQYNLPVNSSFSIIDKNMAVLLHEGVDKVVDELKKIPQLPTAMFCCNDVEAIALYKAFSVMGISVPDDISIIGFDDIESSTSVSPELTTMHINKEAMGERAVKKLIEKMNGQESMDEKIVLPVTLIERQSVKREGHHHHHH | soluble
MGFFSSLSSLFGLGKKDVNIVVVGLDNSGKTTILNQLKTPETRSQQIVPTVGHVVTNFSTQNLSFHAFDMAGQMKYRSTWESYFHSSQGVIFVLDSSDRLRMELLKDELMMVMEHKDVVSRGIPIVILANKMDIPGAMTASDITVALGLNLYRSGTWSIHSTCALTGDGLDKAMQQLSAEITKYMESRRT | not soluble
MKSVGLITEYNPFHNGHQYHINQSKKLTNADVTIAIMSGNFVMRGEPAIYNKFTRAKMALSTADLVIELPATASLSSGDHFAELAVKVADYMSVDTIAFGSENNDIKTLKQLAHSINEIEQSESFSQKVKEGKSYPRIISELLEHHEALASPNNILGISYLKAIAKNAKNINAISIKRENAQHHDSLIQHHQFASGTSIRTSIISQDDHWHHVVPKDIQHLYVTPHITLNQIFPYLKYQIIAMTTDSLKNIYTVTEGFENRLKSNIYEATDFHHFVKLLKTKRYTYTHIQRLLMNVLLNIKPTDVTSNIHAVKVLAMNDRGRQYLKHLKTAFPERQYITNINKSNAHYFTNEIKATHIYNAISGQQQTDFNTPVIQQYR | not soluble
